The values below come from publication PMC7641127, “MCL1 binds and negatively regulates the transcriptional function of tumor suppressor p73” (Cell Death & Disease, 2020).

No end group written: not given here.

The target in the test is T1, recombinant MCL1 (human, UniProt Q07820 1-350).
T1 construct: MCL1, human; Uniformly 15N-labelled for NMR; also called 15N MCL1; source: E. coli BL21 (DE3), purified (nickel chromatography, gel filtration)
The test is described as follows: fluorescence polarisation; competitive FPA: 50 nM recombinant MCL1, 10 nM F-BAK, titration of unlabeled p73 peptide or p73DBD, 1× PBS pH 7.4. The following applies: both partners purified.

T1 sequence (Q07820 whole entry): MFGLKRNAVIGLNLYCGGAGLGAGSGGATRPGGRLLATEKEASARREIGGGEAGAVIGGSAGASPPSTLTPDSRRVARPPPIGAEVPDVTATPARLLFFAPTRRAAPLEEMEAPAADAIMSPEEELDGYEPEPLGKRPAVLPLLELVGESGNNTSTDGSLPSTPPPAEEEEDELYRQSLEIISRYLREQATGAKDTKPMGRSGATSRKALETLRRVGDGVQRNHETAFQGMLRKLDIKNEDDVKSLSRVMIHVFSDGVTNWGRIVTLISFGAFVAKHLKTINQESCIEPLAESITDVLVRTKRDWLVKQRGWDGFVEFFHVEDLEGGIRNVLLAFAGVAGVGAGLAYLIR

B1: p73TD-derived peptide β1 (peptide)
chain: DEDTYYLQVRG-NH2
As usually defined, the IC50 is the concentration that gives 50% inhibition. For B1, the IC50 was greater than 10 µM.

B2: p73TD-derived peptide α2 (peptide)
chain: PQPLVDSYRQQQQLLQR
As to B2, the IC50 is greater than 10 µM.
